From patent publication US6133008

Tested on: TfiI-s (N-terminally shortened TfiI) lacks first 12 amino acids; translation presumed to start at TTG codon (Thermus filiformis)
Experiment: cleavage_in_vitro
Settings: cell lysate; lambda DNA substrate

Q: How did the activity (units/g wet cells) turn out when lambda DNA was run?
A: Its activity (units/g wet cells) is 100000.
